Assay: soluble fraction after stress (log2 fold change); higher = more stays soluble; pooled small domains, quantitative proteomics
Conditions: stress: pH 4
Procedure, shortened: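 Small protein domains from pooled custom libraries were exposed to pH 4, then quantified with high-throughput quantitative proteomics. The fold change in how much of each domain remains soluble is read as aggregation propensity. It is given as log2, with higher values meaning more stayed soluble.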

## HMKTELAYDFHSRIRDARIREGLSQVDLAKRMNEKIAVIQKAENGIRPTDSLIAKFSKALSVELYVE
  soluble fraction (log2): -0.604

## HMKTGIIYGVNGPVIYLKGDTGFKISEMVYVGPEKLVGEVIGLKKHMTTVQVFEETTGLKPGETVIGTGDA
  soluble fraction (log2): -0.0122

## HMKTGTVQDFIAKYGMSSKSPSSWFNSLTQIQKAEAKALKAQSGLTWNEWYEKNIYNGDGSNL
  soluble fraction (log2): -0.119

## HMKTKHISIAEGMSLYTRDRSPFYWGYLNIEGVIHKKSLKTDVVDEAIKLLSIWKNELLNSITK
  soluble fraction (log2): -0.414

## HMKTKKYKGVYKDSKGKIYFQIELGVDPITGKRIQKKGRKNQQGLPFNSFKEAYEEILRLKHEFVNSTIN
  soluble fraction (log2): 0.00285

## HMKTKTAPPDSIPPAWLKESATLRPDLNQAQIKASAEVFLDHHRAKGTTLADWRPAWRNWIRRERA
  soluble fraction (log2): 0.0552

## HMKTLDAFFDQARDAYKKLKKDGDIDNLKVLRNQLQTVRETQGDAVRKKSKEEYRRLVDIIDDIDGLLAAF
  soluble fraction (log2): -0.154

## HMKTLSKEDIGFLSDEAVGEMRKAVANGEMLELRALIDQVGEKNPIVAEKLLTLVKQYDYENLNRVLE
  soluble fraction (log2): -0.802

## HMKTPAPRETILSLFRQTPDGFVSGERISDELGVSRTAVWKHIRNLRQAGYQIEAIPSRGYQLQQS
  soluble fraction (log2): -0.0693

## HMKTQFGTIVKQLRERKGMDQKQLGEIVGVSDKTVSSWEINRTEPKMGIVQQLADYFGVSTDYLIKG
  soluble fraction (log2): 0.00995

## HMKTRQVTVRNGRIEIFDKRFSTERLVFTAANLPVLEREGEVFTAGIPDSRDFINLWARDGSFAGSVPRV
  soluble fraction (log2): -1.51

## HMKTTSYAKLLRFLRTERDLSQITVAKQLGLSRASYLALEHGSRELSLSEAVKVTTLYGIRIDDLIVNH
  soluble fraction (log2): -0.899

## HMKTTVEVSPIARPGAVASGSVKFGSGVTAEWMLDQYGRLGLDKPTGKPTEQDIKEFQIELQKAL
  soluble fraction (log2): 0.122

## HMKVDLSEEEKTILELLKKESPQELETIKAASTLSNKKWDKAIKGLRKHNLAKVNKTDDGLFVELE
  soluble fraction (log2): 0.105

## HMKVDRLISIVLVLLDKNRISAQELADMFEVSLRTIYRDIDAIELAGIPIRSTSGVGGGFEIMPNY
  soluble fraction (log2): -1.19

## HMKVKGVYQLDNGYWGYRFTMLVNGKTVSQRRVKDESGNPFKTEKKAEKARLVAMAEEQTKANK
  soluble fraction (log2): 0.125

## HMKVMTNAELGRIIKEARIARRMTQSEVVGDFITRNMLSQIENGNAAPSMRTLQYLMDVLDIHINIE
  soluble fraction (log2): -0.751

## HMKVNIGDQVYNQMKDQIMSGVWVPGEKIPSENQLMEVFGVSRGTVRQAIQKLSAVGLLETRRGEGSYVGQ
  soluble fraction (log2): -0.0128

## HMKVQLGMNTREVRGIMGKPFSEDTFVEGEKRVDVLHYKEAVRVKTQGFILTTSLRFENDSLTAI
  soluble fraction (log2): -1.02

## HMKVRVFIERSNDGYSAYMPDDNNLPFGLTGDGKTAQEAMQDFLLARDEMKEFFIEEGKEFPEVEFDFS
  soluble fraction (log2): -1.49

## HMKVSAEEQNILDALQAAGGYLPFHDKSNPEEIYEAFGISKKTFKMIIGSLYKQQKINLTQTGIQLII
  soluble fraction (log2): -0.637

## HMKVSDPEAIKLIEQAQVKVIPFLDISEAADIQIALEELKNSEGTGQTDSAKVRLRNLLSPFSYL
  soluble fraction (log2): -1.12

## HMKVSFEIEINGVTKSINSINEAKEAISELQDIMDNSTFGSEEFKNAATQIDKLQNKLVEALDK
  soluble fraction (log2): -1.4

## HMKVSVDLSMFEDDQTADRNAAVAWVVDELGAGGVDRTILMQLQSTGWSAEQSRAILDLASAGR
  soluble fraction (log2): -0.324

## HMKVTGSVQKKKGYYYIVVRLPTKNGTQYEQKQKWFNTKLKATPRNKTAAQVILAEKLTEYGGIV
  soluble fraction (log2): ≥ 0.43

## HMKVWYAGINAQRVGPMTLGAMEQQIRYGRVLFSTLIWKSPMPQWVPAGDVPELRRLLDEHMLNQMP
  soluble fraction (log2): -0.676

## HMKYFDRDLINYIQKTLAGKKIDFHEKIVPLIIELAGSDIRRVDEIIDMAEYSGKGMHVSEEMIRELAGDV
  soluble fraction (log2): -1.72

## HMKYKTKRDMILALMKKEILSGELKPRTRLLISEVASRYEVSEIPVREAFQVLIQEDLVRSTGAGFEVT
  soluble fraction (log2): 0.233

## HMKYPVYLQLADLIERKINKNEYPLGSKIPSERELIDAFGISRMTVRKAIEVLIEKGLLTRQHGKGTYVSQ
  soluble fraction (log2): 0.182

## HMKYSNDFDKVSYSLGLSIASNLISSGVKTLNAEAFNDGLATVFEGRMPEINPDEANKILQNFFEGLQKE
  soluble fraction (log2): -0.632

— the domain aggregation screens of Martell et al. (2025)
